In patent US20040248211A1, “ICAM-related protein” (priority 1992, published 2004):

Tests used:
[1] = molecular target: T1, αd/CD18 transfected CHO cells (Homo sapiens, UniProt P05107+Q13349); test: Flow cytometry binding of soluble chimeras; conditions: chimera 5 μg/ml
T1 construct: expressed in transfected cells; host or cells: CHO cells
Procedure: Binding of αd/CD18-transfected cells to soluble ICAM-1/IgG, ICAM-R/IgG, or VCAM-1/IgG chimeras was determined by flow cytometry. Approximately one million αd/CD18-transfected CHO cells (grown in spinner flasks for higher expression) per measurement were suspended in 100 μl binding buffer (RPMI and 1% BSA) with or without 10 μg/ml anti-CD18 antibody. After a 20 minute incubation at room temperature, the cells were washed in binding buffer and soluble ICAM-1/IgG or ICAM-R/IgG chimera was added to a final concentration of 5 μg/ml. Binding was allowed to proceed for 30 minute at 37° C., after which the cells were washed three times and resuspended in 100 μl binding buffer containing FITC-conjugated sheep anti-human IgG1 at a 1:100 dilution. After a 30 minute incubation, samples were washed three times and suspended in 200 μl binding buffer for analysis with a Becton Dickinson FACScan.

[2] = molecular target: T2, LFA-1 transfected CHO cells (Homo sapiens, UniProt P05107+P20701); test: Binding of transfected CHO cells to immobilized chimeras; type: cell-based; conditions: only following pretreatment with PMA
T2 construct: expressed in transfected cells; host or cells: CHO cells
T2 sequence (P20701 26-1170): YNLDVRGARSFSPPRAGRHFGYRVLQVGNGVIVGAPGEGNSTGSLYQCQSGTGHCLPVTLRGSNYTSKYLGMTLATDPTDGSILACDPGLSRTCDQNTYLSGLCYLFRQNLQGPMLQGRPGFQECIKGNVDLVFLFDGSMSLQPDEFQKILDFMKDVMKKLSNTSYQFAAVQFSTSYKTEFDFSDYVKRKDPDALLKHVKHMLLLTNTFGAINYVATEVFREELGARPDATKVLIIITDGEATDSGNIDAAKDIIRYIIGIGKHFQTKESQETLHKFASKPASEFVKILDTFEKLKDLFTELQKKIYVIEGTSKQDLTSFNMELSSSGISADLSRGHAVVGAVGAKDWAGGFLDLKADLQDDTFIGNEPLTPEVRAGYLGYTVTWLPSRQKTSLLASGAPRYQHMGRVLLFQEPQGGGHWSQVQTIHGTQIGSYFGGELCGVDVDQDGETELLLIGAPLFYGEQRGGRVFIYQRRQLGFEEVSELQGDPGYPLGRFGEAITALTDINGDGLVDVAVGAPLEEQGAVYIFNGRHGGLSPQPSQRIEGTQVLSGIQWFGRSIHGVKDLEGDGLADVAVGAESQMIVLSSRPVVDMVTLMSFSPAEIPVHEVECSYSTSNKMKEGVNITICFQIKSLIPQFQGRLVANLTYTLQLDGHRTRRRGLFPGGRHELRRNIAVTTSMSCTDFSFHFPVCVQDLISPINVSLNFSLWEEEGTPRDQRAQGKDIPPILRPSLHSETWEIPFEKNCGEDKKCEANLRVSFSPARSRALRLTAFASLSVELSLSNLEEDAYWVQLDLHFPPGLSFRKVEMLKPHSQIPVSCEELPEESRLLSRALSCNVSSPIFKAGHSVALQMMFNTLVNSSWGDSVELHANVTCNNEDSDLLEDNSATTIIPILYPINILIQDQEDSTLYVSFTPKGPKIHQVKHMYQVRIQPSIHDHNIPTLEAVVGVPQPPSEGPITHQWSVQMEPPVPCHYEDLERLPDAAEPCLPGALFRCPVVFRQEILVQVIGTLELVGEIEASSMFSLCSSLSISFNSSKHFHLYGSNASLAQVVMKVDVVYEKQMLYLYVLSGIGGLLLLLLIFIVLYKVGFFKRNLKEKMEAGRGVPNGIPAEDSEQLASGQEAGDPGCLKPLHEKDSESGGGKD
T2 sequence (P05107 23-769): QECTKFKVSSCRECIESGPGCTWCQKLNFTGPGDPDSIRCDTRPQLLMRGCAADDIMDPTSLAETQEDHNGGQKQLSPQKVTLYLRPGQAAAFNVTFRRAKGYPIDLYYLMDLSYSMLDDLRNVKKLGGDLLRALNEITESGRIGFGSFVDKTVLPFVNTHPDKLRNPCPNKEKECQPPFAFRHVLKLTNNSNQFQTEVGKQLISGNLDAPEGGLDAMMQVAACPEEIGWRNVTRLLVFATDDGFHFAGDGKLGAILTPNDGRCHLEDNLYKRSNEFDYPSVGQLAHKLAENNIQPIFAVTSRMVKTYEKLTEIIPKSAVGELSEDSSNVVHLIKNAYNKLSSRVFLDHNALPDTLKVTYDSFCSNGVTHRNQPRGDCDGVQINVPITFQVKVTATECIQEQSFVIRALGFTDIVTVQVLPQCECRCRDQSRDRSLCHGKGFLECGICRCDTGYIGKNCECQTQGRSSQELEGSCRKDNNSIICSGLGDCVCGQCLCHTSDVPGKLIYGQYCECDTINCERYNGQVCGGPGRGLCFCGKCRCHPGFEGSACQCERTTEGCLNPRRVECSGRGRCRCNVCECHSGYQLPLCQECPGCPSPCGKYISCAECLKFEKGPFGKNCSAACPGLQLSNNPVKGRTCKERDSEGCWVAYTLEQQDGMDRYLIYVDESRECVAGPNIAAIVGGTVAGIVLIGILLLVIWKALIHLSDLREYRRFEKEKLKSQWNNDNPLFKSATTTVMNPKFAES
Procedure: In replicate assays, soluble ICAM-1, ICAM-R, or VCAM-1 IgG1 chimeric fusion proteins were immobilized on plastic and the ability of αd/CD18 or LFA-1 transfected CHO cells (see co-owned, concurrently filed U.S. patent application Ser. No. 08/286,889 identified as attorney docket No. 32168) to bind the immobilized ligand was determined. Transfected cells were labeled internally with calcein, washed in binding buffer (RPMI with 1% BSA), and incubated in either buffer only (with or without 10 ng/ml PMA) or buffer with anti-CD18 at 10 μg/ml. Transfected cells were added to 96-well Immulon 4 microtiter plates previously coated with soluble ICAM-1/Ig, ICAM-R/Ig or VCAM-1/Ig chimera, or bovine serum albumin (BSA) as a negative control. Wells were blocked with 1% BSA in PBS prior to addition of labeled cells. After washing the plates by immersion in PBS with 0.1% BSA for 20 minutes, total fluorescence remaining in each well was measured using a Cytofluor 2300 (Millipore, Milford, Mass.).

[3] = system: neutrophil binding to ICAM-2; test: Neutrophil adhesion; type: cell-based, human
Procedure: (§1) Binding of HL-60 cells, neutrophils, and COS cells expressing. CD11b to the chimeric proteins was assayed as follows. The chimeric fusion proteins were diluted to 20 μg/ml in 0.1 M Na-carbonate/bicarbonate buffer (pH 9.6) and 50 μl was used to coat each well (in triplicate) of an Immulon 4 96-well plate (Dynatech). The plates were incubated overnight at 4° C. and washed three times in PBS. Wells were blocked with 1% human serum albumin (HSA) for one hour at 37° C. and washed three times in PBS. Two hundred μl of RPMI+0.25% HSA (with/without phorbol ester at 10 ng/ml, with/without blocking mAb at 15 μg/ml) was added to each well. ICAM-R antibodies used were ICR-1.1, ICR-8.1, ICR-4.2, ICR-6.2, ICR-9.2, and ICR-19.3. CD11a blocking antibody TS1/22 (ATCC HB202) and CD11b blocking antibodies 44AACB (ATCC HB249) and LM2/1 (ATCC HB204) were also used as well as monoclonal antibodies IC/A4.1 to CD49d (α4) and 22F12C to CD18, both of which were generated using standard hybridoma techniques. […] The adherent cells were quantified by staining with crystal violet (1% solution in 10% ethanol), washing with water and eluting the dye with 66% ethanol in water and measuring the absorbance at 570 nm. In each experiment percent cells bound was calculated using the absorbency values obtained from the CD18 mAb coated well as 100%. […]

[4] = system: JY cells (LFA-1) binding to ICAM-R/IgG; test: JY cell binding to plate-bound ICAM-R/IgG chimeras; type: cell-based, human; conditions: chimera coated at 10 μg/ml
Procedure: The binding of the lymphoblastoid cell line JY, which expresses LFA-1, to wild type ICAM-R/IgG chimera was examined in the presence and absence of LFA-1 specific antibodies or antibodies specific for either domain 1 or 2 of ICAM-R. ICAM-R chimeras were diluted to 10 μg/ml in 0.1M Na-carbonate/bicarbonate buffer pH 9.6 and used to coat triplicate wells (50 μl/well) of an Immulon 4 96-well plate (Dynatech) overnight at 4° C. Wells were washed three times in PBS and blocked with 1% BSA (in PBS) for 1 hour at 37° C. JY cells were labeled with the fluorescent dye Calcein (Moleculat Probes, Eugene, Oreg.) at 8 μg/ml at 37° C. in serum free RPMI for 20 minutes. Cells were washed with RPMI and resuspended in binding buffer (0.2% HSA in RPMI. Approximately 1×10^5 cells were added to each well containing the binding buffer with or without antibody (20 μg/ml of ICR-2.1, ICR-1.1, ICR-3.1, ICR-5.1, ICR-7.1, ICR-8.1, ICR-4.2, ICR-6.2, ICR-9.2, TS1/22 or 60.3) so that the final volume was 0.35 ml. Plates were incubated at 37° C. in the dark for 45 minutes and input fluorescence was quantitated with a fluorescence reader (Millipore) in a 96-well format. Unbound cells were removed by inverting the plate in 0.1% BSA in PBS for 20 minutes. Bound cells were quantitated by measuring the remaining fluorescence and presented as percent input minus background binding to wells coated with BSA alone.

[5] = system: Neutrophil binding to ICAM-R E37/A; test: Neutrophil adhesion; type: cell-based, human
Procedure: as §1, with “ICR-19.3.” for “ICR-19.3. CD11a blocking antibody TS1/22 (ATCC HB202) and CD11b blocking antibodies 44AACB (ATCC HB249) and LM2/1 (ATCC HB204) were also used as well as monoclonal antibodies IC/A4.1 to CD49d (α4) and 22F12C to CD18, both of which were generated using standard hybridoma techniques.”
This motif in domain 1 of ICAM-1 is essential for CD11a but not CD11b binding. Consequently, the effect of the alanine substitution at ICAM-R E37 (E37/A) on CD11b binding was evaluated.

[6] = system: Neutrophil binding to ICAM-R/His; test: Neutrophil adhesion; type: cell-based, human
Procedure: as §1

T1 sequence (Q13349 18-1161): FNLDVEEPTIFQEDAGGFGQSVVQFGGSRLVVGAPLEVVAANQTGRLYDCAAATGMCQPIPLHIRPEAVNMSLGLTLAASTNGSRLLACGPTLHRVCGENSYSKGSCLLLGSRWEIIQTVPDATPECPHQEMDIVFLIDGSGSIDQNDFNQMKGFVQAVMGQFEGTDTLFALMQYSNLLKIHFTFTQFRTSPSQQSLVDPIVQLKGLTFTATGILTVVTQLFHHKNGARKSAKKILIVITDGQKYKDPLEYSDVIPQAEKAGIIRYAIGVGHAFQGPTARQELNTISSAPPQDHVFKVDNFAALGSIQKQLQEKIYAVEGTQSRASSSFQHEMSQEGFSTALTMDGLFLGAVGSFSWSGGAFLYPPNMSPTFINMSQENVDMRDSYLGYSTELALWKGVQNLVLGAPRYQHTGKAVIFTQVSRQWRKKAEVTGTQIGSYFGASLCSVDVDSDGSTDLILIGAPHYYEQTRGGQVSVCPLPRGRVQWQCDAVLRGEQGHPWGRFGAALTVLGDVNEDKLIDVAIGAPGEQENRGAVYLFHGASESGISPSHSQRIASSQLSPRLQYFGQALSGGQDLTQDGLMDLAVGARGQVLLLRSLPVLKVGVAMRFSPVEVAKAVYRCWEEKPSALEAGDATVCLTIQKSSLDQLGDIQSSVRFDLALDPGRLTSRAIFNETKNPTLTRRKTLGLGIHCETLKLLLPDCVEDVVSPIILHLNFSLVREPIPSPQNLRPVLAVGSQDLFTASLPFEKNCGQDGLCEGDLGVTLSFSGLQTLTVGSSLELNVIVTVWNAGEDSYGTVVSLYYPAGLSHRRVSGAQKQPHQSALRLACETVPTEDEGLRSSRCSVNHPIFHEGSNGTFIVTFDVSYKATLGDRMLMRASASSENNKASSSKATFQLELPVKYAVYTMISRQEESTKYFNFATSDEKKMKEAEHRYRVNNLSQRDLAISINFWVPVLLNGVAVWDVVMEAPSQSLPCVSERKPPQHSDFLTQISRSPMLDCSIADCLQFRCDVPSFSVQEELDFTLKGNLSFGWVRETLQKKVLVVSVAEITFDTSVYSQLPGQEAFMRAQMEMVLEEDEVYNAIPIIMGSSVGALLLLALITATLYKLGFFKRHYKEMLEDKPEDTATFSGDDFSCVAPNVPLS
T1 sequence (P05107 23-769): as the sequence (P05107 23-769) above

B1: ICAM-1/IgG: soluble ICAM-1 IgG1 chimeric fusion protein (protein)
chain: QTSVSPSKVILPRGGSVLVTCSTSCDQPKLLGIETPLPKKELLLPGNNRKVYELSNVQEDSQPMCYSNCPDGQSTAKTFLTVYWTPERVELAPLPSWQPVGKNLTLRCQVEGGAPRANLTVVLLRGEKELKREPAVGEPAEVTTTVLVRRDHHGANFSCRTELDLRPQGLELFENTSAPYQLQTFVLPATPPQLVSPRVLEVDTQGTVVCSLDGLFPVSEAQVHLALGDQRLNPTVTYGNDSFSAKASVSVTAEDEGTQRLTCAVILGNQSQETLQTVTIYSFPAPNVILTKPEVSEGTEVTVKCEAHPRAKVTLNGVPAQPLGPRAQLLLKATPEDNGRSFSCSATLEVAGQLIHKNQTRELRVLYGPRLDERDCPGNWTWPENSQQTPMCQAWGNPLPELKCLKDGTFPLPIGESVTVTRDLEGTYLCRARSTQGEVTRKVTVNVLSPRYE
modifications: left off: a dimerising Fc or GST
notes: soluble ICAM-1 IgG1 chimeric fusion protein
Q: What does the source list for B1?
A: αd/CD18 transfectants binding soluble chimera [1]: no binding; increase in binding of LFA-1 transfected cells [2]: 2-3 fold

B2: ICAM-2: chimeric ICAM-2/IgG fusion protein (protein)
chain: KVFEVHVRPKKLAVEPKGSLEVNCSTTCNQPEVGGLETSLDKILLDEQAQWKHYLVSNISHDTVLQCHFTCSGKQESMNSNVSVYQPPRQVILTLQPTLVAVGKSFTIECRVPTVEPLDSLTLFLFRGNETLHYETFGKAAPAPQEATATFNSTADREDGHRNFSCLAVLDLMSRGGNIFHKHSAPKMLEIYEPVSDSQ
modifications: left off: a dimerising Fc or GST
notes: chimeric ICAM-2/IgG fusion protein
Q: How did the “neutrophil binding relative to ICAM-1” value [3] turn out when B2 was run?
A: The value was “approximately 70%”.

B3: ICAM-R E37/A: ICAM-R/IgG chimera with alanine substitution at E37 (protein)
chain: QEFLLRVEPQNPVLSAGGSLFVNCSTDCPSSEKIALATSLSKELVASGMGWAAFNLSNVTGNSRILCSVYCNGSQITGSSNITVYGLPERVELAPLPPWQPVGQNFTLRCQVEGGSPRTSLTVVLLRWEEELSRQPAVEEPAEVTATVLASRDDHGAPFSCRTELDMQPQGLGLFVNTSAPRQLRTFVLPVTPPRLVAPRFLEVETSWPVDCTLDGLFPASEAQVYLALGDQMLNATVMNHGDTLTATATATARADQEGAREIVCNVTLGGERREARENLTVFSFLGPIVNLSEPTAHEGSTVTVSCMAGARVQVTLDGVPAAAPGQTAQLQLNATESDDGRSFFCSATLEVDGEFLHRNSSVQLRVLYGPKIDRATCPQHLKWKDKTRHVLQCQARGNPYPELRCLKEGSSREVPVGIPFFVNVTHNGTYQCQASSSRGKYTLVVVMDIEAFSSH
modifications: left off: a dimerising Fc or GST
Q: With B3 as the molecule, how does the “LFA-1 mediated JY cell adhesion to variant ICAM-R/IgG chimera” value [4] read?
A: Its value is “completely abrogated adhesion of JY cells”.

Q: And the “neutrophil binding relative to wild type ICAM-R” value [5]?
A: The value was “binding was reduced relative to wild type ICAM-R”.

B4: ICAM-R/His: histidine-tagged ICAM-R extracellular region fusion protein (protein)
chain: QEFLLRVEPQNPVLSAGGSLFVNCSTDCPSSEKIALETSLSKELVASGMGWAAFNLSNVTGNSRILCSVYCNGSQITGSSNITVYGLPERVELAPLPPWQPVGQNFTLRCQVEGGSPRTSLTVVLLRWEEELSRQPAVEEPAEVTATVLASRDDHGAPFSCRTELDMQPQGLGLFVNTSAPRQLRTFVLPVTPPRLVAPRFLEVETSWPVDCTLDGLFPASEAQVYLALGDQMLNATVMNHGDTLTATATATARADQEGAREIVCNVTLGGERREARENLTVFSFLGPIVNLSEPTAHEGSTVTVSCMAGARVQVTLDGVPAAAPGQTAQLQLNATESDDGRSFFCSATLEVDGEFLHRNSSVQLRVLYGPKIDRATCPQHLKWKDKTRHVLQCQARGNPYPELRCLKEGSSREVPVGIPFFVNVTHNGTYQCQASSSRGKYTLVVVMDIEAFSSH
modifications: left off: small tags and cut ends
notes: histidine-tagged ICAM-R extracellular region fusion protein
Q: With B4 as the molecule, how does the “neutrophil adhesion to immobilized protein” value [6] read?
A: The value was “Neutrophils adhered to immobilized ICAM-R/His”.
